Results from patent US20050106145A1 (SIGMA TAU INDUSTRIE FARMACEUTICHE RIUNITE S P A, published 2005).

Experiments:
[1] = target: T1, human tenascin-C (human, UniProt P24821 23-2201, limits assumed); assay: BIAcore
T1 construct: Extracellular matrix protein; also called SK-MEL-28 purified tenascin

[2] = target: T1, human tenascin-C; assay: ELISA, optimal antigen concentration (FIG. 6 panel A)
[3] = target: T2, A1-4D fragment (human, UniProt P24821); assay: Western blot
T2 construct: recombinant antigenic fragment; Lane B of the Western blots; also called A-D fragment
T2 sequence (antigen fragment, looked up): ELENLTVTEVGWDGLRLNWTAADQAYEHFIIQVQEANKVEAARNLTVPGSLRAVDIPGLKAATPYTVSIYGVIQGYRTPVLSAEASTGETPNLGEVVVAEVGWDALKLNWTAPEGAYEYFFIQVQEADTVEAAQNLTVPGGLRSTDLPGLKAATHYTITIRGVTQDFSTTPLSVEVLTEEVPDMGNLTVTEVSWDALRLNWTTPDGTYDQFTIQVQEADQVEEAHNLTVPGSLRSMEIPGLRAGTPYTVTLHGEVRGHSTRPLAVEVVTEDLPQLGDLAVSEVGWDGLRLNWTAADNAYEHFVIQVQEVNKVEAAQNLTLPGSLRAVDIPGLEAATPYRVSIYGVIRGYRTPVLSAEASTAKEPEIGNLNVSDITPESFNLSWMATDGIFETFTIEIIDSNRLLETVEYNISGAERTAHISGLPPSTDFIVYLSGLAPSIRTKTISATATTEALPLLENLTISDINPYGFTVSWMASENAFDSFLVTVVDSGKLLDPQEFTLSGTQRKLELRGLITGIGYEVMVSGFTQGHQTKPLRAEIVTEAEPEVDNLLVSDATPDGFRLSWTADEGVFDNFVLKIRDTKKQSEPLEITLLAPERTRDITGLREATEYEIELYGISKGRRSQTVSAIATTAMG

[4] = target: T1, human tenascin-C; assay: BIAcore; remark: listed apart in the source
[5] = target: T1, human tenascin-C; assay: BIAcore, comparison with BC4

T1 sequence (P24821 23-2201 limits assumed): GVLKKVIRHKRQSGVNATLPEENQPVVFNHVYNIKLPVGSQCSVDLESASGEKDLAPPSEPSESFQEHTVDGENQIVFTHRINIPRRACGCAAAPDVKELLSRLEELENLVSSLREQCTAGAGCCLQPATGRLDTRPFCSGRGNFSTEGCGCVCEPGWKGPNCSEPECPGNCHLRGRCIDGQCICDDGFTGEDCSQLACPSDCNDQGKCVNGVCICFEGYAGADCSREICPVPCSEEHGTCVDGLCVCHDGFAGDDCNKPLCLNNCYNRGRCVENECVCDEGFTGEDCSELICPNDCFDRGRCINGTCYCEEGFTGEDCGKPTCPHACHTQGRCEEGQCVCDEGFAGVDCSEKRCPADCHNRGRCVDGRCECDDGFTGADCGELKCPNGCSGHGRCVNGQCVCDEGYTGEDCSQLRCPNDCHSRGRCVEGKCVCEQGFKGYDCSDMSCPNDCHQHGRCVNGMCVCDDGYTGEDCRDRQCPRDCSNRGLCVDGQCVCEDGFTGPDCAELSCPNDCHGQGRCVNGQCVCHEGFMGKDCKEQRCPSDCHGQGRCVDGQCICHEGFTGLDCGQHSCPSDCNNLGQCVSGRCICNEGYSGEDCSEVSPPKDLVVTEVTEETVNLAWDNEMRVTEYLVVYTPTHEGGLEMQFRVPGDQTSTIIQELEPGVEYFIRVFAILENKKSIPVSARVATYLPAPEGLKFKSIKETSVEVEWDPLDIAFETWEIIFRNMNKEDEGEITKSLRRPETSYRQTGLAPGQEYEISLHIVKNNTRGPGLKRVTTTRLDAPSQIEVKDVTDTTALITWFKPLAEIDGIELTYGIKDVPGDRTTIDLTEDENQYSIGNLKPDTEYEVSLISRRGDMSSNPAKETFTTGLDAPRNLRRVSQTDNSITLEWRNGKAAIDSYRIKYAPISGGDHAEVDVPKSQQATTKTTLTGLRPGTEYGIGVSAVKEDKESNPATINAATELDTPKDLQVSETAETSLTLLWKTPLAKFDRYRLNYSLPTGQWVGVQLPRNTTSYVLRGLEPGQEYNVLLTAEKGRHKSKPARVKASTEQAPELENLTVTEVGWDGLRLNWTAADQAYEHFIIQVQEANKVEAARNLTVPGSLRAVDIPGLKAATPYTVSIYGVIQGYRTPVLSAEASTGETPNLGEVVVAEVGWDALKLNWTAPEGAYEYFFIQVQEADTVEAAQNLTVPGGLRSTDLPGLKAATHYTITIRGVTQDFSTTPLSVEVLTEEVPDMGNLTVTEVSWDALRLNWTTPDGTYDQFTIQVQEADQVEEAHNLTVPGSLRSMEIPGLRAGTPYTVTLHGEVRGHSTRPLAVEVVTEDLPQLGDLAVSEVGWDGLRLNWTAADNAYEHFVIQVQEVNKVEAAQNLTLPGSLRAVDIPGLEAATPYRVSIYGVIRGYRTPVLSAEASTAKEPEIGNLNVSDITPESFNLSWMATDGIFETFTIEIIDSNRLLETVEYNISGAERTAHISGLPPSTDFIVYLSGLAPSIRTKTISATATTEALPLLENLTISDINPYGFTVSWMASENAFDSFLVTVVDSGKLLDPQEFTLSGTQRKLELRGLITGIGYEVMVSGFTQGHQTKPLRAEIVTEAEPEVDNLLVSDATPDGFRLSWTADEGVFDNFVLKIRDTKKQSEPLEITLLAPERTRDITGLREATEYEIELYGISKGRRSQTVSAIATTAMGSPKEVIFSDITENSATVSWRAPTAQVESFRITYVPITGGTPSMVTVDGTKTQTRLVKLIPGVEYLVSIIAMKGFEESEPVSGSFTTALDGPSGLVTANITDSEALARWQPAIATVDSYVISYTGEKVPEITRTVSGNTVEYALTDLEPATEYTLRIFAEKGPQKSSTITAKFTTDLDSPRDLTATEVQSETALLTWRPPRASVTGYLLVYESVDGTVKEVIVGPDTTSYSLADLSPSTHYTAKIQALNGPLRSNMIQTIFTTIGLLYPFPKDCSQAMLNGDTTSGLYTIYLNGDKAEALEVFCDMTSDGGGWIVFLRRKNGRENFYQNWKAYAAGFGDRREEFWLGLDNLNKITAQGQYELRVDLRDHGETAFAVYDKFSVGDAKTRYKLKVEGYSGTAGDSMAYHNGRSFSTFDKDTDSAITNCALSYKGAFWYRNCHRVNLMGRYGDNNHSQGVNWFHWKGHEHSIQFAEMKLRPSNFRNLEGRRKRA

Kd [1]: 1.4 nM | fold less antibody to obtain 1.0 OD than BC4 [2]: ~100 fold | fold less antibody to obtain 1.0 OD than the fully reactive peak 3 of BC4 [2]: ~20 fold | binding result [3]: no binding | koff [4]: 0.00041 s⁻¹ | kon [4]: 300000 M⁻¹ s⁻¹ | fold affinity against BC4 [5]: ~3 fold
B1: ST2146 anti-human tenascin monoclonal antibody (antibody, V domains shown)
VH: KVKLQQSGPELVKPGASVKVSCKASGYAFTSYNMYWVKQSHGKSLEWIGYIDPYNGVTSYNQKFKGKATLTVDKSSSTAYMHLNSLTSEDSAVYYCARGGGSIYYAMDYWGQGTTVTVSS
VL: DIVMTQAAPSVPVTPGESVSISCRSSKSLLHSNGNTYLYWFLQRPGQSPQLLIYRMSNLASGVPDRFSGSGSGTAFTLRISRVEAEDVGVYYCMQHLEYPLTFGAGTKLELKR
notes: Mouse immunoglobulin of IgG2b/k isotype from hybridoma cST2146; Heavy chain is heterogeneously O-glycosylated
